In the nanobody polyreactivity screen of Harvey et al. (2022):

Assay: yeast display, Sf9 membrane polyspecificity reagent, FACS + sequencing; frameworks hold sequencing errors
In short: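 In a synthetic yeast display library (Saccharomyces cerevisiae BJ5465), nanobody expression was induced with galactose for 36–48 hours. FACS gates were set low and high (top ~1%) using anti-HA fluorescence for expression and streptavidin fluorescence for binding of the Sf9 membrane reagent. Each polyreactivity label is drawn from the gate of origin.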

Sequence	polyreactivity (PSR sort gate)
QVQLVESGGGLVQAGGRLRVSCAASGSTFAWYAMGWYRQAPGKERELVAAISSGGRTYYADSVKGRFTISRDNAKNTVDLQMNSLKREDTAVFSCNADDWAYGMDYWGQGSQVTVSS	low polyreactivity
QVQLVESGGGLVQAGGRLSLSCAASGRTFYRYAMGWYRQAPGKDRELVAAISTRGGTTYYADSVKGRFTFSRDNAKNSVYLQMNSLKPEDTAVYYCAADSVYAEYDSWGQGTQVTVSS	low polyreactivity
QVQLVESGGGLVQAGGRLSLSCAASGSIFLYYAMGWYRQAPGKEREFVADISRSGGSTYYADSVKGRFTISRDNAKNTVYLQMNSLKPEDTAVYYCAASFYRYFVSLCYDYWGQGTQVSVSS	high polyreactivity
QVQLVESGGGLVQAGGRLSLSCAASGSIFRPNPMGWYRQAPGKERELVAAITWSGDSTYYADSVKGRFTISRDNAKNTVYLKMNSLKPEDTAVYYCAADFTYQGSSANDYWGQGTQVTVSS	low polyreactivity
QVQLVESGGGLVQAGGRLSLSCSASGSIFEQKAMGWYRKAPGKEREFVATISDGGGTYYADSVKGRFTISRDNAKNTVYLQINSLKPEDNAVYYCAATFGGSVFVYDYWGQGTQVTLSS	low polyreactivity
QVQLVESGGGLVQAGGSFRLSCAASGSIFVVYDMGCYRQAPGKERELVAAITSGGSTYYADSVKGRFTISRDNAKNTVYLQMNSLKPEDTAVYYCAADSYEGYDYWGQGTQVTVSS	low polyreactivity
QVQLVESGGGLVQAGGSGRLSCAASGRIFAGYAMGWYIQAPGKERELVAAISSSGGSTYYSDSVKGRFTISRDNAKNSVYLQMNSLKPEDTAVYYCADRGKRNTPQRFYYWGQGTQVTVSS	high polyreactivity
QVQLVESGGGLVQAGGSHGLSCAASGRTFYYYAMGWYRPAPGKERELVAAITSGGRTYYADSVKGRFTISRDNAKNTDYLQMNRLKPEDTAVYYCAADLSDPDWSRYQWDMDYWGQGTQVTVSS	low polyreactivity
QVQLVESGGGLVQAGGSHPLSCAASGRTFGHNAMRSYRQAPGKERELVAAITRSGGRTFYADSVKGRFTISRDNAMNTVYLQMNSLKPEDTAVFYCATDYYRYRDYAYYWLDYNYWGQGTQVTVSS	high polyreactivity
QVQLVESGGGLVQAGGSHRISCAASGRTLPSYAMGWYRQAPGKERELVAAISYSGASTYYADSVKGRFTISRDNAKNTVYLQMNSLKPQDTAVYYCAVYRTFRYRYDSWGQGTQVTVSS	high polyreactivity
QVQLVESGGGLVQAGGSHRLRCAASGRIFHVYAMGWYRQAPGKERELVAAISSGDRTYYADSVKGRFIISRDNAKNTVYLQMISLKPEDTAVYYCWRYPADESNYWGQGTQVTVSS	low polyreactivity
QVQLVESGGGLVQAGGSHRLRCADSGFTFYSNAMGCYRQAPGKERELVASITWSGGNTYYADSVKGRFTISRDKAKTTVYLQMNSLKPEDTAVYYCAAGYSRDVQGYARAYRFYYWGQGTQVTVSS	high polyreactivity
QVQLVESGGGLVQAGGSHRLSCAASARILYRNAMGRYRQAPGKERELVAAITTRGTSTYYADSVKGRFTISRDNANNTVYLQMNSLKPEDTAVYYCNKVTRDLTQGYDYWGQGTQVTVSS	high polyreactivity
QVQLVESGGGLVQAGGSHRLSCAASGFIFVRNAMGWYRQAPGKERELVAAISSSGGSTNYADSVKGRFTISRDNAKNTVYLQMNSLKPEDTAVYYCNVVTFRYYYKYGYWGQGTQVTVSS	high polyreactivity
QVQLVESGGGLVQAGGSHRLSCAASGFTFVNNALGWYRQPPGKEREFVAPISSDGGSTYYADSVKGRFTMSRDNAKNTVYLQMNSLKPEDTAVYYCAKVYPYRTYDTSYYHYHYDSWGQGTQVTVSS	low polyreactivity
QVQLVESGGGLVQAGGSHRLSCAASGFTFVTYAMGWYRQAPGKERELVATISWGGGGTYYADSVKGRFTMSRDNAKNTVYFQLNSLKPEDTAVYYCAADNCYHYNFDYWGQGTQVTVSS	low polyreactivity
QVQLVESGGGLVQAGGSHRLSCAASGGIFYFNAMGWYRQAPGKERELVASITWSGGNTYYADSVKGRFTISRDNAKNTVYLQMNSLKPEDTAVYYCAADTQEYRPTYDYWGQGTQVTVSS	low polyreactivity
QVQLVESGGGLVQAGGSHRLSCAASGIIFWRYAMGWYRQAPGKERELVAGITSRGGSTYYADSVKGRFTISRDNAKNTVYLQMNSLKPEDTAVYFCNADWFGQLWWGVDYWGQGTQVTVSS	high polyreactivity
QVQLVESGGGLVQAGGSHRLSCAASGIILYHYAMGWYRQAPGKERELVATITSGGSTNYADSVKGRFTISRDYAKNTVDLQMNSLKPEDTAVYYCAAVPSRYGRYRYYYWGQGTQVTVSS	high polyreactivity
QVQLVESGGGLVQAGGSHRLSCAASGIIYYYNTMGWYRQAPGKEREFVAAISNSGGRTYYADSVKGRFTISRDNAKNTVYLQMNSLKPEDTAVYYCAARYVLFSNRFDYWGQGTQVTVSS	high polyreactivity
QVQLVESGGGLVQAGGSHRLSCAASGITFTGYGMGWYRQAPGKERELVAAIRLRTGSTYFADSVKGRFTISRDNAKNTVYLQMNSLKPEDTAVYYCNKVTVYRFRGVSWGQGTQVTVSS	high polyreactivity
